Results on 4 substances are retold here after paper PMC4269863.

In assay [1] the target is HIV-1 surface envelope glycoprotein gp120 (immobilised for SPR) (HIV-1 (strain not stated)) (UniProt P04578). Nature of the assay: SPR; gp120 and gp41 covalently immobilised by amine coupling on a CM4 chip (about 115 and 45 RU), HSA as control surface; CBAs injected as two-fold dilutions; Biacore T200, 25°C, HBS-P (10 mM HEPES, 150 mM NaCl, 0.05% surfactant P20, pH 7.4) with 10 mM CaCl2; 1:1 Langmuir model. (Surface plasmon resonance follows binding to a sensor surface in real time, without labels.)

For assay [2], the target named is HIV-1 transmembrane envelope glycoprotein gp41 (immobilised for SPR) (HIV-1 (strain not stated)) (UniProt P04578). The assay is described as above.
For assay [3], the target named is envelope glycoproteins gp120/gp41 of HIV-1 NL4.3 virus with gp41 N611Q/N637Q (HIV-1 NL4.3).
Assay [4] concerns the target envelope glycoproteins gp120/gp41 of HIV-1 NL4.3 virus with gp41 N611Q/N637Q/N674Q (HIV-1 NL4.3).
The target of assay [5] is envelope glycoproteins gp120/gp41 of HIV-1 NL4.3 virus with gp41 N637Q/N674Q (HIV-1 NL4.3).
In assay [6] the target is envelope glycoproteins gp120/gp41 of HIV-1 NL4.3 virus with gp41 N625Q/N674Q (HIV-1 NL4.3).
Assay [7] concerns the target envelope glycoproteins gp120/gp41 of HIV-1 NL4.3 virus with gp41 N625Q/N637Q (HIV-1 NL4.3).
Assay [8] concerns the target envelope glycoproteins gp120/gp41 of HIV-1 NL4.3 virus with gp41 N625Q/N637Q/N674Q (HIV-1 NL4.3).
Assay [9] addresses envelope glycoproteins gp120/gp41 of HIV-1 NL4.3 virus with gp41 N674D (HIV-1 NL4.3).
In assay [10] the target is envelope glycoproteins gp120/gp41 of HIV-1 NL4.3 virus with gp41 N625Q (HIV-1 NL4.3).
Assay [11] concerns the target envelope glycoproteins gp120/gp41 of HIV-1 NL4.3 virus with gp41 N637Q (HIV-1 NL4.3).
For assay [12], the target named is envelope glycoproteins gp120/gp41 of HIV-1 NL4.3 virus with gp41 N611Q (HIV-1 NL4.3).
For assay [13], the target named is envelope glycoproteins gp120/gp41 of HIV-1 NL4.3 virus with gp41 N674Q (HIV-1 NL4.3).
Assay [14] addresses envelope glycoproteins gp120/gp41 of wild-type HIV-1 NL4.3 virus (HIV-1 NL4.3).
In another assay the target is soluble CD4 (UniProt P01730). Nature of the assay: ELISA; 0.5 μg soluble CD4 coated on maxisorp strips; about 48 ng p24 of virus lysed with Triton-X100 added 1 h at 37°C; bound gp120 detected with sheep antibody D7324; normalised to WT∆Env virus, relative to WT (100%). (In general: An ELISA detects its analyte on a solid surface through an enzyme-linked reagent.)

actinohivin, sequence (Q9KWN0 47-160): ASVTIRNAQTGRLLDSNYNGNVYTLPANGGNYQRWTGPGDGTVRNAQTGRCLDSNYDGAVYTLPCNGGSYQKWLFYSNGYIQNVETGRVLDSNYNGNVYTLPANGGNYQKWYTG

The term Kd denotes a measure of binding affinity in units of concentration. “Hippeastrum hybrid agglutinin (natural protein)”: the results for the Kd in assay [1] and in assay [2] were 0.5 nM and 0.4 nM, respectively. The EC50 of inhibition of cell-free virus infection of C8166 cells (eGFP, flow cytometry, 72 h) in assay [3] stood at 2.7 nM; in assay [4] it was 2.8 nM; in assay [5], 1.6 nM; in [6] it was 1.3 nM; in assay [7], 1.4 nM; in assay [8], 2.1 nM. Besides, the EC50 of inhibition of cell-free virus infection of C8166 cells (eGFP, flow cytometry, 72 h) is 1.9 nM in assay [9]; 1.4 nM in assay [10]; 3.7 nM in assay [11]; 1.6 nM in [12]; 1.3 nM in [13]; 0.9 nM in assay [14].

For the substance “Urtica dioica agglutinin (natural protein)”, the Kd worked out at 9 nM in assay [1] and 3.7 nM in assay [2]. For the same substance, the EC50 of inhibition of cell-free virus infection of C8166 cells (eGFP, flow cytometry, 72 h) in [3] turned out to be 63 nM; in [4] it was 52 nM; in assay [5], 28 nM; in assay [6] it was 30 nM; in assay [7] it was 51 nM; in assay [8] it was 35 nM. Also, the EC50 of inhibition of cell-free virus infection of C8166 cells (eGFP, flow cytometry, 72 h) is 34 nM in assay [9]; 27 nM in assay [10]; 57 nM in assay [11]; 32 nM in [12]; 32 nM in assay [13]; 25 nM in assay [14].

For the substance “actinohivin (from UniProt Q9KWN0 47-160) (natural protein)”, the Kd came out at 14 nM in assay [1] and 2 nM in [2]. Also, the EC50 of inhibition of cell-free virus infection of C8166 cells (eGFP, flow cytometry, 72 h) in assay [3] was 3 nM; in [4], 3.6 nM; in [5], 4.3 nM; in assay [6], 3.2 nM; in [7] it was 3.8 nM; in [8], 3.2 nM. Besides, the EC50 of inhibition of cell-free virus infection of C8166 cells (eGFP, flow cytometry, 72 h) came out at 2.1 nM in assay [9]; 8.1 nM in assay [10]; 15 nM in [11]; 5.4 nM in assay [12]; 8.3 nM in assay [13]; 5.2 nM in assay [14].

In the case of “envelope glycoproteins gp120/gp41 of HIV-1 NL4.3 virus with gp41 N625Q (complex)”, the binding efficiency, percent of WT with soluble CD4 is 130 % of WT.
